For the data set, the system named is Saccharomyces cerevisiae. In words: protein stability index of tFT-peptide fusion (C-terminal peptide) (PSI (0-1 scale)); higher = more stable (slower turnover). As to conditions: temperature: 30 C. As to the method: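 MPS profiling in S. cerevisiae of the yeast C-terminome library: the last 12 aa of each annotated ORF are fused to the C-terminus of a sfGFP-mCherry timer, after a GGGS linker. Cells are FACS-sorted into 8 mCherry/sfGFP bins and deep-sequenced. PSI runs from 0 (unstable) to 1 (stable); wild type and das1Δ backgrounds, two technical replicates each.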

Where [1] appears, read: genetic background: das1 deletion.

The text below walks through data of the supplement of paper PMC10724198.

± gives the standard deviation of the averaged measurements.

Take “LGMINTVVSLDR [YBR221W-A C-terminal 12 aa]”: the protein stability index runs as follows: under setting [1], 0.691 ± 0.022; (genetic background: wild type) 0.672 ± 0.04.

With LIAEILLARNLI [HOM2 C-terminal 12 aa], the protein stability index worked out at 0.71 ± 0.0084 under setting [1] and 0.662 ± 0.007 (genetic background: wild type).

LIGFGNQVSKAL [BUD25 C-terminal 12 aa]: the protein stability index was determined as 0.703 ± 0.03 under setting [1] and 0.723 ± 0.027 (genetic background: wild type).

As to “LISCCCCCFRRC [YNL097W-A C-terminal 12 aa]”, the protein stability index is, setting by setting: under setting [1], 0.6974 ± 0.004; (genetic background: wild type) 0.669 ± 0.016.

In the case of LKAVCPPDAGFA [YOR387C C-terminal 12 aa], the protein stability index by setting is: under setting [1], 0.7086 ± 0.0046; (genetic background: wild type) 0.7462 ± 0.0071.

Regarding LKHFIKVFSSKL [ARR1 C-terminal 12 aa], the protein stability index amounted to 0.825 ± 0.013 under setting [1] and 0.89 ± 0.024 (genetic background: wild type).

Take LKITDDLARKGF [TGL2 C-terminal 12 aa]: the protein stability index came out at 0.7205 ± 0.0035 under setting [1] and 0.666 ± 0.0096 (genetic background: wild type).

Consider LKKKLYTLEQKK [KEL2 C-terminal 12 aa], for which the protein stability index under setting [1] was 0.694 ± 0.02 and the protein stability index (genetic background: wild type) is 0.6241 ± 0.0031.

For the sequence LKLNHSFATIFK [MCM21 C-terminal 12 aa], the protein stability index by setting is: under setting [1], 0.684 ± 0.018; (genetic background: wild type) 0.677 ± 0.024.

Take LKQLDNLKSQLN [ARG4 C-terminal 12 aa]: the protein stability index reads like this: under setting [1], 0.7 ± 0.013; (genetic background: wild type) 0.6755 ± 0.0019.

Consider LLNSRATQDVVC [VMA3 C-terminal 12 aa], for which the protein stability index under setting [1] was 0.6342 ± 0.0054 and the protein stability index (genetic background: wild type) turned out to be 0.66 ± 0.0053.

In the case of LLQSGRYGGNRS [RCI37 C-terminal 12 aa], the protein stability index is, setting by setting: under setting [1], 0.683 ± 0.011; (genetic background: wild type) 0.663 ± 0.021.

In the case of LLSVDGWRTDQL [QRI7 C-terminal 12 aa], the protein stability index reads like this: under setting [1], 0.721 ± 0.014; (genetic background: wild type) 0.758 ± 0.031.

As to LMGAALAAVIFL [FIT1 C-terminal 12 aa], the protein stability index reads like this: under setting [1], 0.672 ± 0.018; (genetic background: wild type) 0.668 ± 0.026.

In the case of LNFYNDNFGSQF [STP1 C-terminal 12 aa], the protein stability index under setting [1] was 0.723 ± 0.0098 and the protein stability index (genetic background: wild type) was found to be 0.71 ± 0.048.

On to LNKEALKHNMLK [HSH49 C-terminal 12 aa], for which the protein stability index came out at 0.691 ± 0.048 under setting [1] and 0.695 ± 0.092 (genetic background: wild type).

As for LNKKSSVKILLY [CMS1 C-terminal 12 aa], the protein stability index was found to be 0.693 ± 0.01 under setting [1] and 0.614 ± 0.0071 (genetic background: wild type).

Consider LNWLIKGILTED [HFI1 C-terminal 12 aa], for which the protein stability index is, setting by setting: under setting [1], 0.753 ± 0.033; (genetic background: wild type) 0.675 ± 0.039.

Take LPSERSRLSYTN [CBP3 C-terminal 12 aa]: the protein stability index is 0.703 ± 0.026 under setting [1] and 0.696 ± 0.071 (genetic background: wild type).

The sequence “LPSPRFFSPITL [YER158W-A C-terminal 12 aa]” gave a protein stability index under setting [1] of 0.685 ± 0.024 and a protein stability index (genetic background: wild type) of 0.702 ± 0.008.

Regarding LQFILPSMNLAN [GPB1 C-terminal 12 aa], the protein stability index is, setting by setting: under setting [1], 0.692 ± 0.0087; (genetic background: wild type) 0.656 ± 0.015.

LQKFYLQVSTIS [YFR054C C-terminal 12 aa]: the protein stability index is, setting by setting: under setting [1], 0.456 ± 0.0082; (genetic background: wild type) 0.456 ± 0.0082.

Consider LQPMEAFKYDRS [BIO2 C-terminal 12 aa], for which the protein stability index runs as follows: under setting [1], 0.71 ± 0.0075; (genetic background: wild type) 0.731 ± 0.046.

With LRASGDDSDPAY [PFA5 C-terminal 12 aa], the protein stability index by setting is: under setting [1], 0.7076 ± 0.0054; (genetic background: wild type) 0.687 ± 0.014.

With LRKKQVKKKVKS [SLX8 C-terminal 12 aa], the protein stability index by setting is: under setting [1], 0.6885 ± 0.0062; (genetic background: wild type) 0.716 ± 0.061.

In the case of LRRFIICQLHLI [YBR027C C-terminal 12 aa], the protein stability index under setting [1] was determined as 0.523 ± 0.02 and the protein stability index (genetic background: wild type) stood at 0.139 ± 0.0035.

As to LRYYVSKLINFK [YNL324W C-terminal 12 aa], the protein stability index reads like this: under setting [1], 0.70435 ± 0.00064; (genetic background: wild type) 0.6889 ± 0.00073.

On to LSDSHYELNAES [PMT5 C-terminal 12 aa], for which the protein stability index under setting [1] was 0.712 ± 0.033 and the protein stability index (genetic background: wild type) amounted to 0.706 ± 0.044.

In turn, LSKDGIYTAIPK [PAU15 C-terminal 12 aa] came in with a protein stability index under setting [1] of 0.685 ± 0.025 and a protein stability index (genetic background: wild type) of 0.767 ± 0.12.

Regarding LSRVGELYLSTD [SEC7 C-terminal 12 aa], the protein stability index under setting [1] is 0.683 ± 0.02 and the protein stability index (genetic background: wild type) was found to be 0.692 ± 0.038.

For the sequence LSVEEDRDVQMT [APC5 C-terminal 12 aa], the protein stability index is, setting by setting: under setting [1], 0.684 ± 0.013; (genetic background: wild type) 0.729 ± 0.054.

For LVDIITGASSLG [ATP3 C-terminal 12 aa], the protein stability index runs as follows: under setting [1], 0.6894 ± 0.004; (genetic background: wild type) 0.719 ± 0.041.

Regarding LVVARDMLLASL [SPC25 C-terminal 12 aa], the protein stability index by setting is: under setting [1], 0.6474 ± 0.0048; (genetic background: wild type) 0.624 ± 0.024.

In turn, LVYENVRVPRYL [IFM1 C-terminal 12 aa] yielded a protein stability index under setting [1] of 0.697 ± 0.015 and a protein stability index (genetic background: wild type) of 0.6639 ± 0.0064.

In the case of LWNLSDNCKNTV [MMS1 C-terminal 12 aa], the protein stability index by setting is: under setting [1], 0.707 ± 0.02; (genetic background: wild type) 0.7014 ± 0.0061.

For LYAQLRENGLVP [SNU114 C-terminal 12 aa], the protein stability index reads like this: under setting [1], 0.695 ± 0.035; (genetic background: wild type) 0.683 ± 0.038.

As to MAEKQIASEFNY [DBP7 C-terminal 12 aa], the protein stability index worked out at 0.721 ± 0.012 under setting [1] and 0.662 ± 0.0067 (genetic background: wild type).

In the case of MAQNYVIDRMGL [MTC1 C-terminal 12 aa], the protein stability index reads like this: under setting [1], 0.707 ± 0.027; (genetic background: wild type) 0.68 ± 0.037.

With MEKSDRYIQETW [TAH18 C-terminal 12 aa], the protein stability index reads like this: under setting [1], 0.7032 ± 0.0048; (genetic background: wild type) 0.691 ± 0.009.

Consider MERELIKEEYDN [PAA1 C-terminal 12 aa], for which the protein stability index was found to be 0.702 ± 0.025 under setting [1] and 0.67 ± 0.031 (genetic background: wild type).

Consider MERLQKGWSLAK [MDY2 C-terminal 12 aa], for which the protein stability index amounted to 0.71 ± 0.043 under setting [1] and 0.684 ± 0.02 (genetic background: wild type).

MFGKLGRYLYSH [NSG2 C-terminal 12 aa] came in with a protein stability index under setting [1] of 0.75552 ± 0.00052 and a protein stability index (genetic background: wild type) of 0.211 ± 0.04.

MFNQGKVEEMDF [SML1 C-terminal 12 aa] had a protein stability index under setting [1] of 0.7189 ± 0.0047 and a protein stability index (genetic background: wild type) of 0.692 ± 0.017.

Consider MGIRLRYNVEPK [RPA135 C-terminal 12 aa], for which the protein stability index amounted to 0.735 ± 0.041 under setting [1] and 0.663 ± 0.014 (genetic background: wild type).

As to MKFNVISFLFHK [NAM2 C-terminal 12 aa], the protein stability index runs as follows: under setting [1], 0.688 ± 0.011; (genetic background: wild type) 0.615 ± 0.011.

With MKQLEKAGVRFE [FMP33 C-terminal 12 aa], the protein stability index by setting is: under setting [1], 0.6871 ± 0.0014; (genetic background: wild type) 0.686 ± 0.014.

In the case of MLGVGSLLFLAF [ROT1 C-terminal 12 aa], the protein stability index was found to be 0.698 ± 0.03 under setting [1] and 0.691 ± 0.026 (genetic background: wild type).

For MLYTSYQSIFGV [AVT4 C-terminal 12 aa], the protein stability index came to 0.707 ± 0.015 under setting [1] and 0.706 ± 0.0086 (genetic background: wild type).

As to MNSAMNVQPTGF [CHC1 C-terminal 12 aa], the protein stability index by setting is: under setting [1], 0.6951 ± 0.0016; (genetic background: wild type) 0.662 ± 0.033.

As to “MTQWLEISILMN [YCL001W-A C-terminal 12 aa]”, the protein stability index under setting [1] is 0.544 ± 0.05 and the protein stability index (genetic background: wild type) came out at 0.319 ± 0.034.

For MVGVLFFWVWIT [BET1 C-terminal 12 aa], the protein stability index came to 0.201 ± 0.0064 under setting [1] and 0.123 ± 0.018 (genetic background: wild type).

In the case of NAPRFGVEYQMT [PHO89 C-terminal 12 aa], the protein stability index was 0.72259 ± 0.00055 under setting [1] and 0.67 ± 0.017 (genetic background: wild type).

Consider NCANCVYFSSRG [YDL221W C-terminal 12 aa], for which the protein stability index under setting [1] is 0.7169 ± 0.0029 and the protein stability index (genetic background: wild type) was determined as 0.716 ± 0.043.

In turn, NDAQKRAIDENF [SIS1 C-terminal 12 aa] registered a protein stability index under setting [1] of 0.687 ± 0.016 and a protein stability index (genetic background: wild type) of 0.683 ± 0.0076.

Consider “NDQNKNKQNAKR [YIL156W-A C-terminal 12 aa]”, for which the protein stability index stood at 0.7078 ± 0.0055 under setting [1] and 0.639 ± 0.011 (genetic background: wild type).

With NDTIFKLKVFKL [ILS1 C-terminal 12 aa], the protein stability index is, setting by setting: under setting [1], 0.7346 ± 0.001; (genetic background: wild type) 0.759 ± 0.099.

As for NEDDYLAVKYVL [FES1 C-terminal 12 aa], the protein stability index reads like this: under setting [1], 0.687 ± 0.018; (genetic background: wild type) 0.696 ± 0.044.

For NEGSEEEPEIDQ [BDP1 C-terminal 12 aa], the protein stability index is 0.6878 ± 0.0019 under setting [1] and 0.702 ± 0.037 (genetic background: wild type).

NEKGNDDSDAKK [ILM1 C-terminal 12 aa]: the protein stability index came out at 0.695 ± 0.041 under setting [1] and 0.685 ± 0.029 (genetic background: wild type).

On to NEKRNEPKPSTN [YTA12 C-terminal 12 aa], for which the protein stability index is, setting by setting: under setting [1], 0.6938 ± 0.0025; (genetic background: wild type) 0.656 ± 0.017.

NEMRERLRALQN [VPS24 C-terminal 12 aa] showed a protein stability index under setting [1] of 0.668 ± 0.011 and a protein stability index (genetic background: wild type) of 0.685 ± 0.054.

For NENKKANGNNCC [YPT31 C-terminal 12 aa], the protein stability index under setting [1] worked out at 0.705 ± 0.017 and the protein stability index (genetic background: wild type) amounted to 0.652 ± 0.036.

Take NHFHYDCVYRYC [YOR333C C-terminal 12 aa]: the protein stability index stood at 0.6939 ± 0.0038 under setting [1] and 0.404 ± 0.03 (genetic background: wild type).

Consider NIKSSTLPGLSI [PFS2 C-terminal 12 aa], for which the protein stability index reads like this: under setting [1], 0.694 ± 0.02; (genetic background: wild type) 0.664 ± 0.029.

Regarding NKYMNEMLEYMQ [NUF2 C-terminal 12 aa], the protein stability index reads like this: under setting [1], 0.715 ± 0.0072; (genetic background: wild type) 0.719 ± 0.085.

As for NLAGRKNSRDNE [LOT5 C-terminal 12 aa], the protein stability index is, setting by setting: under setting [1], 0.681 ± 0.017; (genetic background: wild type) 0.6772 ± 0.0027.

On to NLDNLFMASSLI [AIM6 C-terminal 12 aa], for which the protein stability index reads like this: under setting [1], 0.7128 ± 0.0018; (genetic background: wild type) 0.658 ± 0.033.
